From US20250277030A1 (Zymeworks, published 2025) come the findings set out here.

Test [1] deals with T1, human sodium-dependent phosphate transporter 2B (NaPi2b) (human, UniProt O95436 1-690).
T1 sequence: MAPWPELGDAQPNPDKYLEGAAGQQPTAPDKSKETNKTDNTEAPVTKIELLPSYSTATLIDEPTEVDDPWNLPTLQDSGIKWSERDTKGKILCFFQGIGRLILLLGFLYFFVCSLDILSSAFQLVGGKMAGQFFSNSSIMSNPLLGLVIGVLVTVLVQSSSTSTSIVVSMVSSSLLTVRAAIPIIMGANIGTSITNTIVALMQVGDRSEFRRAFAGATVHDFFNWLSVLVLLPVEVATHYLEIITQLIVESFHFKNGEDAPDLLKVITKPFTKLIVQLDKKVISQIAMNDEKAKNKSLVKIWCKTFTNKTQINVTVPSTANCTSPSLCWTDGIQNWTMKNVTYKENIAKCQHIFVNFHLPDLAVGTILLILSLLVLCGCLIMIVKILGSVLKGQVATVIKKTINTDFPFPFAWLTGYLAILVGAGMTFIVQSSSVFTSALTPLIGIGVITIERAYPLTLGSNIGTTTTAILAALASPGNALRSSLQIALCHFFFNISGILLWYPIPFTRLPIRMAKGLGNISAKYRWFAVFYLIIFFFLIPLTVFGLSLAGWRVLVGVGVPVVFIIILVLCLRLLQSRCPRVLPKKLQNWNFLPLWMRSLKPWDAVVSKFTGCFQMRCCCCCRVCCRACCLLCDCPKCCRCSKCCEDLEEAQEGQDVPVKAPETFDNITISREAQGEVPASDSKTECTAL
In words: cell-based or functional assay.

Test [2] addresses T1, human sodium-dependent phosphate …. In words: flow cytometry, IGROV-1 cells (endogenous NaPi2b), 24 h at 4 °C. The procedure:
(§1) IGROV-1 cells express endogenous NaPi2b at a high level.
(§2) Briefly, cells were seeded at 50,000 cells/well in conical-bottom 96-well plates and treated with test antibody for 24 hours at 4° C. to prevent internalization. […] Following incubation, cells were washed and stained with anti-Human IgG Fc AF647 conjugate (Jackson Immuno Research Labs, West Grove, PA; Cat. No. 109-605-098) at 4° C. for 30 min. Following incubation and washing, fluorescence was detected by flow cytometry on a BD LSRFortessa™ Cell Analyzer (BD Biosciences, Franklin Lake, NJ) with 1,000 minimum events collected per well. The AF647/APC-A GeoMean (fluorescence signal geometric mean, proportional to anti-Human AF647 binding) was calculated for the live cell population using FlowJo™ Version 10.8.1 (BD Biosciences, Franklin Lake, NJ) and plotted for each test antibody using GraphPad Prism Version 9 (GraphPad Software, San Diego, CA).

The target is the same in test [3]. The test is described as follows: flow cytometry, IGROV-1 cells (endogenous NaPi2b), 24 h at 4 °C; apparent Kd. The method, then: as §1, §2
The target is the same in test [4]. In words: flow cytometry on IGROV-1 cells (endogenous NaPi2b), 24 h at 4 C, anti-human IgG Fc AF647 detection. The method, then:
as §1, §2

In test [5] the target is T2, KLH (Sigma-Aldrich, H8283).
T2 construct: also called keyhole limpet hemocyanin
The test is described as follows: non-specific binding ELISA, KLH coated at 5 µg/mL, antibody at 100 nM.
Method: NS-ELISA was carried out in Corning®96-well EIA/RIA Easy Wash™ Clear Flat Bottom Polystyrene High Bind Microplate coated overnight at 4° C. with 50 μL of Heparin (Sigma, H3149) diluted with 50 mM sodium carbonate pH 9.6 to a final concentration of 250 μg/mL. The plate was incubated for 2 days at room temperature, wells that were coated with heparin were not covered to allow air dry. […] 50 μL each of insulin, KLH, dsDNA and ssDNA were added to a 96 well plate, followed by the incubation at 37° C. for 2 h. The coating materials were removed, and the plate was blocked with 200 μL of Gibco™ PBS pH7.4, 0.1% Tween®20, and incubated for 1 h at room temperature with shaking at 200 rpm. The plate was washed 3 times with Gibco™ PBS pH7.4, 0.1% Tween 20. […] Reactions were stopped after approximately 10 minutes by adding 100 μL of 1 M HCl to each well, and absorbance was read at 450 nm. Binding scores were calculated as the ratio of the ELISA signal of the antibody (antibody-treated) to the signal of a well containing buffer instead of the primary antibody (untreated). The cutoffs considered for each binding molecule (ssDNA, KLH, insulin, dsDNA and heparin) were internally calculated, based on the average of Zymeworks Inc. produced antibodies and antibodies benchmarks published in the literature.

The target in test [6] is T1, human sodium-dependent phosphate …. The test is described as follows: KinExA, IGROV-1 cells, monovalent format. The method, then:
The binding affinity of anti-NaPi2b antibody constructs was assessed by Kinexa in the endogenous NaPi2b-expressing cell line, IGROV-1.
(§3) The cell-binding assay was set up using the antibody constructs or variants as constant binding partner at two different concentrations of 50 pM and 500 pM. For the titration curve with antibody variants fixed at 50 pM, at least 10 million IGROV-1 cells were used as titrant. For the titration curve with antibody variants fixed at 500 pM, at least 5 million cells were used as titrant. The antibody variants and cells were mixed in PBS pH 7.4, 1 mg/mL BSA, 0.2% NaN₃ and incubated at 4° C. for 7 days with gentle rotation until equilibrium was reached. After incubation, the mixture of antibody variants and cells was centrifuged to separate the cells from the unbound free antibody variants. The free antibody variants were loaded onto the KinExA 3200 (Sapidyne, Boise, Idaho) with biotinylated—anti-human IgG PMMA as solid phase and 0.5 μg/mL of Alexa 647 goat anti-human IgG (Jackson ImmunoResearch, West Grove, PA) as detection antibody.
(§4) N-curve analysis was used to calculate the affinity and receptor expression level with the concentrations of antibody variant as reference point.

Test [7] shares this target. The test is described as follows: KinExA, IGROV-1 cells (endogenous NaPi2b) as titrant, monovalent antibody constant at 50 and 500 pM, N-curve analysis. The method, then: as §3, §4
The target is the same in test [8]. In words: flow cytometry, HCC-78 cells (endogenous NaPi2b). The method, then:
(§5) Briefly, HEK293-6e cells were transfected for ˜24 hours to transiently express human NaPi2b, cynomolgus or mouse NaPi2b, at 1 μg of DNA per 1 million cells. Following transfection, 50,000 cells per well were seeded in V-bottom 96-well plates and incubated with 200 nM of primary antibody for 18-24 hours at 4° C. to prevent internalization. Post-incubation, cells were washed and stained with anti-Human IgG Fc AF647 conjugate (Jackson Immuno Research Labs, West Grove, PA, Cat. No. 109-605-098, Lot. No. 124868) at 4° C. for 1 hour. Following staining and washing, fluorescence was detected by flow cytometry on BD LSRFortessa™ Cell Analyzer (BD Biosciences, Franklin Lake, NJ) with 10,000 minimum events collected per well. The AF647/APC-A GeoMean (fluorescence signal geometric mean, proportional to anti-Human AF647 binding) was calculated for the live singlet cell population for each primary antibody using FlowJo™ v8 software (BD Biosciences, Franklin Lake, NJ). The Bmax and Kd of each primary antibody were calculated using GraphPad Prism Version 9 (GraphPad Software, San Diego, CA)
(§6) The ability of ADCs to bind to cells expressing NaPi2b was assessed. […] Binding to endogenous high NaPi2b-expressing cell lines IGROV-1 and HCC-78 was assessed by flow cytometry according to methods described in Example 5.

Test [9] shares this target. The test is described as follows: flow cytometry, IGROV-1 cells (endogenous NaPi2b). The procedure:
as §5, §6

For test [10] the target is unchanged. The test is described as follows: flow cytometry, HCC-78 cells (endogenous NaPi2b); apparent Kd. The method, then:
as §5, §6

The target is the same in test [11]. The test is described as follows: flow cytometry, IGROV-1 cells (endogenous NaPi2b); apparent Kd. The procedure: as §5, §6
Test [12] shares this target. The test is described as follows: flow cytometry on IGROV-1 cells (endogenous NaPi2b), 4 C, anti-human IgG Fc AF647 detection. The procedure: as §5, §6
For test [13] the target is unchanged. The test is described as follows: flow cytometry on HCC-78 cells (endogenous NaPi2b), 4 C, anti-human IgG Fc AF647 detection. The method, then:
as §5, §6

B1: v18992-DL2, MX35 conjugated to MT-VC-Compound 1 (DAR 3) (antibody, human IgG1, kappa)
heavy 1: GQVQLVQSGAEVVKPGASVKMSCKASGYTFTGYNIHWVKQAPGQGLEWIGAIYPGNGDTSYKQKFRGRATLTADTSTSTVYMELSSLRSEDSAVYYCARGETARATFAYWGQGTLVTVSSASTKGPSVFPLAPSSKSTSGGTAALGCLVKDYFPEPVTVSWNSGALTSGVHTFPAVLQSSGLYSLSSVVTVPSSSLGTQTYICNVNHKPSNTKVDKKVEPKSCDKTHTCPPCPAPELLGGPSVFLFPPKPKDTLMISRTPEVTCVVVDVSHEDPEVKFNWYVDGVEVHNAKTKPREEQYNSTYRVVSVLTVLHQDWLNGKEYKCKVSNKALPAPIEKTISKAKGQPREPQVYVYPPSRDELTKNQVSLTCLVKGFYPSDIAVEWESNGQPENNYKTTPPVLDSDGSFALVSKLTVDKSRWQQGNVFSCSVMHEALHNHYTQKSLSLSPG
heavy 2: not shown
light: GDIQMTQSPSSLSASVGDRVTITCSASQDIGNFLNWYQQKPGKTVKVLIYYTSSLYSGVPSRFSGSGSGTDYTLTISSLQPEDFATYYCQQYSKLPLTFGQGTKLELKRTVAAPSVFIFPPSDEQLKSGTASVVCLLNNFYPREAKVQWKVDNALQSGNSQESVTEQDSKDSTYSLSSTLTLSKADYEKHKVYACEVTHQGLSSPVTKSFNRGEC
modifications: MT-VC-Compound 1 (DL2) on cysteines freed by reduction; positions not given; MT-VC-Compound 1 (DL2) on cysteines freed by reduction; positions not given; DAR 3 for the whole antibody
notes: also called MX35 Compound 1 ADC; MX35-DL2 ADC
For B1, in [1], the “In vitro cytotoxicity EC50 (nM), HCC-78” value worked out at 0.13 nM; the “In vitro cytotoxicity EC50 (nM), IGROV-1” value is 0.11 nM; the “In vitro cytotoxicity EC50 (nM), OVCAR-3” value is 0.02 nM. The “Bmax (MFI)” value in test [2] stood at 41200 MFI. For the same molecule, in test [3], the Kd came to 1.22 nM. Further, the “EC50 (read off the curve)” value in test [4] is about 1 nM.

B2: v29452 humanized anti-NaPi2b antibody (H1L3) (antibody, human IgG1, kappa, V domains shown)
VH: QVQLVQSGAEVKKPGASVKVSCKASGFTFTSYNVHWVRQAPGQGLEWMGAISPGNGDLSYAQKFQGRVTMTRDTSTSTVYMELSSLRSEDTAVYYCARGRTGMGAVDYWGQGTLVTVSS
VL: DVQMTQSPSSLSASVGDRVTITCRASQDVYSYLNWYQQKPGKAVKLLIYYTSRLQSGVPSRFSGSGSGTDYTLTISSLQPEDIATYYCQQYNIFPWTFGQGTKLEIKR
As for B2, the “Bmax (MFI)” value in test [2] was 47800 MFI. Besides, in [5], the “NS-ELISA binding score (ratio of signal between antibody-treated and untreated)” value amounted to 1.34 ratio. For the same molecule, the Kd in test [3] was determined as 1.6 nM.

B3: v36123, monovalent format of humanized antibody variant 29452 (antibody, V domains shown)
VH: QVQLVQSGAEVKKPGASVKVSCKASGFTFTSYNVHWVRQAPGQGLEWMGAISPGNGDLSYAQKFQGRVTMTRDTSTSTVYMELSSLRSEDTAVYYCARGRTGMGAVDYWGQGTLVTVSS
VL: DVQMTQSPSSLSASVGDRVTITCRASQDVYSYLNWYQQKPGKAVKLLIYYTSRLQSGVPSRFSGSGSGTDYTLTISSLQPEDIATYYCQQYNIFPWTFGQGTKLEIK
notes: Only said to be the monovalent format of v29452; also called v36123 (VH1/VL3)
For B3, the “fold lower binding affinity than chimeric parental antibody construct (v29814)” value in [6] is about 2 fold. In addition, in test [7], the Kd is 0.297 nM.

B4: v36124, monovalent format of humanized antibody variant 29456 (antibody, V domains shown)
VH: QVQLVQSGAEVKKPGASVKVSCKASGFTFTSYNVHWVRQAPGQGLEWMGAISPGNGDLSYAQKFQGRVTMTRDTSTSTVYMELSSLRSEDTAVYYCARGRTGMGAVDYWGQGTLVTVSS
VL: DVQMTQSPSSLSASVGDRVTITCRASQDVYSYLNWYQQKPGKAVKLLIYYTSRLQSGVPSRFSGSGSGTDYTLTISSLQPEDFATYYCQQYNIFPWTFGQGTKLEIK
notes: Only said to be the monovalent format of v29456; also called v36124 (VH1/VL2)
As to B4, the “fold lower binding affinity than chimeric parental antibody construct (v29814)” value in test [6] is about 2 fold. For the same molecule, the Kd in test [7] turned out to be 0.283 nM.

B5: v29456-DL1, v29456 conjugated to MC-GGFG-AM-DXd1 (DAR 8) (antibody, human IgG1, kappa)
heavy: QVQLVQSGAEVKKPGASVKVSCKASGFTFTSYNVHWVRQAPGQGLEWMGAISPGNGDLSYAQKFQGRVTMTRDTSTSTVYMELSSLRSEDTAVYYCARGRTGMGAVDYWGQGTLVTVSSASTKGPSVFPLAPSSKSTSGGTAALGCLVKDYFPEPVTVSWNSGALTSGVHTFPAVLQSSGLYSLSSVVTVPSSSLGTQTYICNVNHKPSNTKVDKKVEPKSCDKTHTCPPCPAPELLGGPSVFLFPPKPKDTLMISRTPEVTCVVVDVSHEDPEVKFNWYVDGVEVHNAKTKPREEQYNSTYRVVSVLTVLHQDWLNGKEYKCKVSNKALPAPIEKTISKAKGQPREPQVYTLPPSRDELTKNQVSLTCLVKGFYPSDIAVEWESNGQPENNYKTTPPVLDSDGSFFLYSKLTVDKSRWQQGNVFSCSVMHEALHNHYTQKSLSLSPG
light: DVQMTQSPSSLSASVGDRVTITCRASQDVYSYLNWYQQKPGKAVKLLIYYTSRLQSGVPSRFSGSGSGTDYTLTISSLQPEDFATYYCQQYNIFPWTFGQGTKLEIKRTVAAPSVFIFPPSDEQLKSGTASVVCLLNNFYPREAKVQWKVDNALQSGNSQESVTEQDSKDSTYSLSSTLTLSKADYEKHKVYACEVTHQGLSSPVTKSFNRGEC
modifications: MC-GGFG-AM-DXd1 (DL1) on cysteines freed by reduction; positions not given; MC-GGFG-AM-DXd1 (DL1) on cysteines freed by reduction; positions not given; DAR 8 for the whole antibody
notes: also called v29456-MC-GGFG-AM-DXd1
On to B5, for which the “In vitro cytotoxicity EC50 (nM), HCC-78” value in [1] turned out to be 0.51 nM. The “In vitro cytotoxicity EC50 (nM), IGROV-1” value in [1] was determined as 1.14 nM. The Bmax in test [8] is 21800. In [9], the “Bmax (MFI)” value came out at 77000 MFI. Also, the Kd in test [10] came out at 2.27 nM; in test [11], 0.67 nM. In test [12], the “EC50 (read off the curve)” value is about 0.7 nM.

B6: v29456-DL2, v29456 conjugated to MT-VC-Compound 1 (DAR 4) (antibody, human IgG1, kappa)
heavy: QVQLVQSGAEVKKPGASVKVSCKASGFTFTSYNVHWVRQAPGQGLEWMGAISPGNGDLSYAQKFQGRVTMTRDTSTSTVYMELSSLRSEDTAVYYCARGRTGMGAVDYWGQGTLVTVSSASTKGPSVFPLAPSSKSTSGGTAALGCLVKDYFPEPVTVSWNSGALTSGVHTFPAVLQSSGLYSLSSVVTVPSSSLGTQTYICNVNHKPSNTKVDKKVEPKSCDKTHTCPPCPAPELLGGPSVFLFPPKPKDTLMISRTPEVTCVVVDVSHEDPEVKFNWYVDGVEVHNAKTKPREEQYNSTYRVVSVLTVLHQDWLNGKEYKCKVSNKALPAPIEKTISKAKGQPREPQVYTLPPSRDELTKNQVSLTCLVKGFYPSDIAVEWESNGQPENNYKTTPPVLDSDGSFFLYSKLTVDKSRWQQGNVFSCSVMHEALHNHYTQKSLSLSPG
light: DVQMTQSPSSLSASVGDRVTITCRASQDVYSYLNWYQQKPGKAVKLLIYYTSRLQSGVPSRFSGSGSGTDYTLTISSLQPEDFATYYCQQYNIFPWTFGQGTKLEIKRTVAAPSVFIFPPSDEQLKSGTASVVCLLNNFYPREAKVQWKVDNALQSGNSQESVTEQDSKDSTYSLSSTLTLSKADYEKHKVYACEVTHQGLSSPVTKSFNRGEC
modifications: MT-VC-Compound 1 (DL2) on cysteines freed by reduction; positions not given; MT-VC-Compound 1 (DL2) on cysteines freed by reduction; positions not given; DAR 4 for the whole antibody
notes: also called v29456-MT-VC-Compound 1
As to B6, in [1], the “In vitro cytotoxicity EC50 (nM), HCC-78” value amounted to 0.06 nM; the “In vitro cytotoxicity EC50 (nM), IGROV-1” value is 0.08 nM; the “In vitro cytotoxicity EC50 (nM), OVCAR-3” value amounted to 0.01 nM. Also, the Bmax in test [8] worked out at 20400. Also, the “Bmax (MFI)” value in [9] stood at 81400 MFI. For the same molecule, in test [10], the Kd was 2.32 nM. In addition, the Kd in test [11] turned out to be 0.77 nM. Further, the “EC50 (read off the curve)” value in test [13] is about 2 nM.
